# Reference: article PMC7117912
# Ends that are not written are not given here.
# Columns and labels:
# [1] = biological target: HLA-A*02:01 (human MHC I heavy chain ectodomain, amino acids 1-278) refolded with human β2-microglobulin (human); test: fluorescence polarisation
# [2] = biological target: H2-D^b (mouse MHC I heavy chain ectodomain) refolded with human β2-microglobulin (mouse | human); test: fluorescence polarisation; one-step dissociation, uncatalyzed: 300 nM MHC I loaded with TAMRA-labeled peptide, 1000-fold molar excess (300 µM) of unlabeled competitor peptide, no TAPBPR; 23°C, 1xHBS; one-phase exponential decay
Binder,koff [1],koff [2]
FLPSDC(TAMRA)FPSF [FLPSDC*FPSF (fluorescently labeled medium-affinity peptide for HLA-A*02:01)],0.0019 s⁻¹,
TQSC(TAMRA)NTQSI [TQSC*NTQSI (fluorescently labeled medium-affinity peptide for H2-D^b)],,0.00253 s⁻¹
ASNC(TAMRA)NMETM [ASNC*NMETM (fluorescently labeled high-affinity peptide for H2-D^b)],,0.0002 s⁻¹
